Assays:
endogenous SLC38A9 = biological target: T1, endogenous SLC38A9 (human, UniProt Q8NBW4 1-561, limits assumed); experiment: FLAG IP from HEK-293T cells stably expressing the bait, - or + amino acids; immunoblot
T1 construct: Endogenous protein of HEK-293T cells, found by LC-MS-MS or immunoblot; also called SLC38A9 (NCBI Gene ID: 153129)
T1 sequence: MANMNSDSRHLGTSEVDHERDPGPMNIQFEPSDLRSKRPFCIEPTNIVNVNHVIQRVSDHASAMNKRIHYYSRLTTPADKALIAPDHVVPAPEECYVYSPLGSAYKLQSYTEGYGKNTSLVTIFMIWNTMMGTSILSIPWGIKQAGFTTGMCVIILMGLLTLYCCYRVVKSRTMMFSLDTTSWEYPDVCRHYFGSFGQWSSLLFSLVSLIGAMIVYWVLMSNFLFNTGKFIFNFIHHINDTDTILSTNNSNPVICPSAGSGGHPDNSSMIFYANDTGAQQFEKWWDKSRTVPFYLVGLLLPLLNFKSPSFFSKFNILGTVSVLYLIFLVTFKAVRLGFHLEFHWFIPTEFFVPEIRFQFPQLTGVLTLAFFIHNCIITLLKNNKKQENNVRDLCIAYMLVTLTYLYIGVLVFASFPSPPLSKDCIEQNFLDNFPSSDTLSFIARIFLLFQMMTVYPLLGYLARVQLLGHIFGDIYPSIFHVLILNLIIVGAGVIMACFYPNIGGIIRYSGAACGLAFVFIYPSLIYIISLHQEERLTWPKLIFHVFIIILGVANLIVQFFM

raptor = biological target: T2, raptor (human (HEK-293T cells), UniProt Q8N122); experiment: FLAG IP from transfected HEK-293T cells, immunoblot
T2 construct: endogenous; Named only on the sheet
Procedure: HEK-293T cells were cultured in DMEM supplemented with 10% inactivated fetal bovine serum, penicillin (100 IU/mL), and streptomycin (100 μg/mL) and maintained at 37° C. and 5% CO₂. Two million HEK-293T cells were plated in 10 cm culture dishes.
Transfection mixes were taken up to a total of 5 μg of DNA using empty pRK5. HEK-293T cells stably expressing FLAG-tagged proteins were rinsed once with ice-cold PBS and lysed in ice-cold lysis buffer (40 mM HEPES pH 7.4, 1% Triton X-100, 10 mM β-glycerol phosphate, 10 mM pyrophosphate, 2.5 mM MgC12 and 1 tablet of EDTA-free protease inhibitor (Roche) per 25 ml buffer). The soluble fractions from cell lysates were isolated by centrifugation at 13,000 rpm for 10 min in a microcentrifuge. […] Immunoprecipitates were washed three times with lysis buffer containing 500 mM NaCl. Immunoprecipitated proteins were denatured by the addition of 50 μL of sample buffer and incubation at RT for 30 min. It is critical that the samples containing SLC38A9 are neither boiled nor frozen prior to resolution by SDS-PAGE and analysis by immunoblotting. A similar protocol was employed when preparing samples for mass spectrometry.

T2 sequence (Q8N122 whole entry): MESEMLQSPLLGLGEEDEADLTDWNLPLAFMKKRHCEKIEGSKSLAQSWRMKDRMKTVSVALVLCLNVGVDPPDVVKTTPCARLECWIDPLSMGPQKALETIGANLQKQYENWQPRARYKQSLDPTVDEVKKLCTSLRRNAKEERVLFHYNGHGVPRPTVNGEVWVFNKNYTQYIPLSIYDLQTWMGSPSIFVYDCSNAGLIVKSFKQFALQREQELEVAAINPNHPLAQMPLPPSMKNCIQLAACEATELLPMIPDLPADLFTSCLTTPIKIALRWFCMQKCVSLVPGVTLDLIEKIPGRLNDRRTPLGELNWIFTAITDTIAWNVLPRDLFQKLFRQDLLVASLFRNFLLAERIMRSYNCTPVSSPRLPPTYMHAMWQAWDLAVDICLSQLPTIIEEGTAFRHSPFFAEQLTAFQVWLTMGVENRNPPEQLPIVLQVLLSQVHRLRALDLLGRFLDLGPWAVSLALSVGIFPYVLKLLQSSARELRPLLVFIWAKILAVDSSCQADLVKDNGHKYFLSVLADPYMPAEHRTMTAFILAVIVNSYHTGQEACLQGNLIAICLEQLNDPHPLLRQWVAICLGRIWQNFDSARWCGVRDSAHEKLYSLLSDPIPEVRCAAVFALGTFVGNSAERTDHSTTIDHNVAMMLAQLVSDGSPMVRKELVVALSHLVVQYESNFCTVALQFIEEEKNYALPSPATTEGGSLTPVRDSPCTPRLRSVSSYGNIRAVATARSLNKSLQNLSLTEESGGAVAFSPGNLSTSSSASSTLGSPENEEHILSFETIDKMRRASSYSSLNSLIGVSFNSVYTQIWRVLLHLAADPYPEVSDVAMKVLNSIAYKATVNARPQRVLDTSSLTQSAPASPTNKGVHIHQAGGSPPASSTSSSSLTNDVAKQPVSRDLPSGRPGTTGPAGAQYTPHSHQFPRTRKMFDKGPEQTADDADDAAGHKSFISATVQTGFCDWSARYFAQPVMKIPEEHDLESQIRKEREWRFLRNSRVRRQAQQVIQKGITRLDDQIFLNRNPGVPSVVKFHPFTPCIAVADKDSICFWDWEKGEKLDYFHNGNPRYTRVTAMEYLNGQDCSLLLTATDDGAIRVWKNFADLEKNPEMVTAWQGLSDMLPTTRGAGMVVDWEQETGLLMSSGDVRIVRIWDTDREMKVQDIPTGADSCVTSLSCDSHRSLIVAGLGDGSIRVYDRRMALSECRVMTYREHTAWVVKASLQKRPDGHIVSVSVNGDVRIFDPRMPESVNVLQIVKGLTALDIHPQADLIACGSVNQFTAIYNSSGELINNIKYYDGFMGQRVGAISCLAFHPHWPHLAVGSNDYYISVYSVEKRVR

- binding result (endogenous SLC38A9): no binding
- binding result (raptor): no binding
B1: FLAG-metap2 (enzyme)
chain: DYKDDDDKMAGVEEVAASGSHLNGDLDPDDREEGAASTAEEAAKKKRRKKKKSKGPSAAGEQEPDKESGASVDEVARQLERSALEDKERDEDDEDGDGDGDGATGKKKKKKKKKRGPKVQTDPPSVPICDLYPNGVFPKGQECEYPPTQDGRTAAWRTTSEEKKALDQASEEIWNDFREAAEAHRQVRKYVMSWIKPGMTMIEICEKLEDCSRKLIKENGLNAGLAFPTGCSLNNCAAHYTPNAGDTTVLQYDDICKIDFGTHISGRIIDCAFTVTFNPKYDTLLKAVKDATNTGIKCAGIDVRLCDVGEAIQEVMESYEVEIDGKTYQVKPIRNLNGHSIGQYRIHAGKTVPIVKGGEATRMEEGEVYAIETFGSTGKGVVHDDMECSHYMKNFDVGHVPIRLPRTKHLLNVINENFGTLAFCRRWLDRLGESKYLMALKNLCDLGIVDPYPPLCDIKGSYTAQFEHTILLRPTCKEVVSRGDDY
notes: Control bait; also called control protein Metap2
